Measured values taken from patent US20210269546A1.
pIC50: −log10 of the molar value.

Legend:
[1] = target: human recombinant CD64 (Fc gamma receptor I), R&D Systems (human) (UniProt P12314); assay: SPR (Biacore T200), construct captured on Protein A, soluble CD64 as analyte
[2] = target: FcγRIIaH131 (cell surface CD32a, cells bearing the labeled receptor, TR-FRET) (UniProt P12318); assay: TR-FRET competition (CisBio) on cells bearing the labeled receptor; competitor: labeled antibody
[3] = target: FcγRIIIaV158 (on cells bearing the labeled receptor, TR-FRET) (UniProt P08637); assay: as above
FcγRIIIaV158 (on cells bearing the labeled receptor, TR-FRET), sequence (P08637 17-254 F176V): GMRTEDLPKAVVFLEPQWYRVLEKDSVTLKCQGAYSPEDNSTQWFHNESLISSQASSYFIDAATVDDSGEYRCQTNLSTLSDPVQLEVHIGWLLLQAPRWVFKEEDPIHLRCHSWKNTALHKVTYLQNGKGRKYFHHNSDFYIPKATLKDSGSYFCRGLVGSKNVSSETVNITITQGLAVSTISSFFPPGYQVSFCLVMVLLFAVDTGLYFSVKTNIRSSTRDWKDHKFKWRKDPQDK

[4] = target: FcγRIIb (on cells bearing the labeled receptor, TR-FRET) (UniProt P31994); assay: as above
FcγRIIb (on cells bearing the labeled receptor, TR-FRET), sequence (P31994 43-310 limits assumed): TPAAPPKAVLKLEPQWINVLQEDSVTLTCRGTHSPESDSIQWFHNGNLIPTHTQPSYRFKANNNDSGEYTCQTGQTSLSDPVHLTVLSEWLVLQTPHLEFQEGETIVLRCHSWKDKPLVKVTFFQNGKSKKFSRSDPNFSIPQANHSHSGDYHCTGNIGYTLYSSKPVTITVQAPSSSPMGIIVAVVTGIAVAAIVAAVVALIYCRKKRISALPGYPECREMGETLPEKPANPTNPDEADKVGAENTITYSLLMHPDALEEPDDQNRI

FcγRIIaH131 (cell surface CD32a, cells bearing the labeled receptor, TR-FRET), sequence (P12318 34-317): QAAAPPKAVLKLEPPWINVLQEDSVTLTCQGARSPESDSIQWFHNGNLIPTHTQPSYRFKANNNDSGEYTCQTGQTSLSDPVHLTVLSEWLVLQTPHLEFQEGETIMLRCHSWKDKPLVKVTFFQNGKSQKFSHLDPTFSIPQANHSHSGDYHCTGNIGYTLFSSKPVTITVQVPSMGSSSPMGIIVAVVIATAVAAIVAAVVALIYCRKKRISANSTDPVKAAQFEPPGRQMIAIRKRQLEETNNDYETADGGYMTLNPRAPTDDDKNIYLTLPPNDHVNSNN
human recombinant CD64 (Fc gamma receptor I), R&D Systems (human), sequence (P12314 16-288 limits assumed): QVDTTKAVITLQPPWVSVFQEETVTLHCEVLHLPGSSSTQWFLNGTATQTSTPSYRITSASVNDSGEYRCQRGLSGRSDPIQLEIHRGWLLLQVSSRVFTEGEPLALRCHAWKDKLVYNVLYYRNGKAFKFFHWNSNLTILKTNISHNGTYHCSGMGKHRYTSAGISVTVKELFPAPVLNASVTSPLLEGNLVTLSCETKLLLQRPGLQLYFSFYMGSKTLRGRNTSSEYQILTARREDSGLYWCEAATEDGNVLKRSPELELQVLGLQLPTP

CD64 Valency by SPR [1]: 1.5 | pIC50 [2]: 5.90 | pIC50 [3]: 6.37 | pIC50 [4]: 5.48
Substance: anti-CD20 mAb (CDRs from Gazyva (obinutuzumab)) (antibody)
